T1: Wildtype human PAR2 expressed on cells (human, UniProt P55085 37-397)
T1 sequence: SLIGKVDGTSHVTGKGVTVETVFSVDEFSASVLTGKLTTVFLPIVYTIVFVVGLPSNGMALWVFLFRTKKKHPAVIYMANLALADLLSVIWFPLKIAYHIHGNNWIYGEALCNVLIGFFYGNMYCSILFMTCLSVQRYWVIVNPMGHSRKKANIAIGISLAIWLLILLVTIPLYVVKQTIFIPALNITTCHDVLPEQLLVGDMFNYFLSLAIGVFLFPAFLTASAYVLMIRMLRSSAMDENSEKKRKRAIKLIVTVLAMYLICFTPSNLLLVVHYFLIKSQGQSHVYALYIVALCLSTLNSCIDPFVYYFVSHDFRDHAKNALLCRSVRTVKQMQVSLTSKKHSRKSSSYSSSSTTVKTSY

T2: Wildtype human PAR 1 (human, UniProt P25116 42-425)
T2 construct: BacMam-infected HEK293f cells in the IP-One assay
T2 sequence: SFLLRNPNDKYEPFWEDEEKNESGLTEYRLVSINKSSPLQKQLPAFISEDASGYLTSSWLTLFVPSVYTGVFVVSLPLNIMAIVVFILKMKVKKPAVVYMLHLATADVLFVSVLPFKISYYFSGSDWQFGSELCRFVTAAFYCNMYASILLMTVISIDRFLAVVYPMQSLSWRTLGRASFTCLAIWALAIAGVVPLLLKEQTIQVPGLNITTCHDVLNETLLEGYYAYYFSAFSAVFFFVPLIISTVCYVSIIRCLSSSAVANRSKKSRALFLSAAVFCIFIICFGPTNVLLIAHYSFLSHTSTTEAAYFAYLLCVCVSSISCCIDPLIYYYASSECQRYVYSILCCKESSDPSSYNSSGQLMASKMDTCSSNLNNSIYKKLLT

T3: Mouse PAR2 on Flp-In CHO cells (mouse, UniProt P55086 39-399)
T3 construct: whole, on cells
T3 sequence (looked up): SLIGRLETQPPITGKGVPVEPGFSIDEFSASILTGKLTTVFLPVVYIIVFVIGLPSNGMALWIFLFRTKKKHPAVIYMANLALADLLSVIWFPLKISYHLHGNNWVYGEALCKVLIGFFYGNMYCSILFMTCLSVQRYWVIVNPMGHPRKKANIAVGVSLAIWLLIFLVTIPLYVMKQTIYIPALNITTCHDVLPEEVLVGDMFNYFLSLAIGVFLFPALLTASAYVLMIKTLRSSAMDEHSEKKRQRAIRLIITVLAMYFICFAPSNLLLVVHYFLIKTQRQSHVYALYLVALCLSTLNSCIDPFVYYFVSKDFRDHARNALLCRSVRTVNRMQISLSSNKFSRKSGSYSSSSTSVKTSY

T4: PAR2-3: P157: 1-377, glycosylated, pBacMamHisStrepII, full length (human, UniProt P55085 26-377)
T4 construct: detergent-solubilised analyte in SPR, or on infected cells in flow cytometry; also called FL-N PAR2 StaR; FL-N StaR; not shown: C-terminal StrepII and deca-histidine tags
T4 sequence: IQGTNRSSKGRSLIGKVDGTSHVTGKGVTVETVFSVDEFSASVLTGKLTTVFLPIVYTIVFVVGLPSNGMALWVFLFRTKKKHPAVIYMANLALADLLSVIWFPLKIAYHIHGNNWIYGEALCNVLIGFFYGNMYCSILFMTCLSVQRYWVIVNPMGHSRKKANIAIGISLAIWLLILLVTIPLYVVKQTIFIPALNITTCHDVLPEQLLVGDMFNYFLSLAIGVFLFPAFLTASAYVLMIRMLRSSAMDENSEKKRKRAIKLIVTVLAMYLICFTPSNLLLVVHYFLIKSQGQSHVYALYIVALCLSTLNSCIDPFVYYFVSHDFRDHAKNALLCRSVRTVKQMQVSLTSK

T5: V5His-huPAR2 on Flp-In CHO cells (human, UniProt P55085 37-397)
T5 sequence: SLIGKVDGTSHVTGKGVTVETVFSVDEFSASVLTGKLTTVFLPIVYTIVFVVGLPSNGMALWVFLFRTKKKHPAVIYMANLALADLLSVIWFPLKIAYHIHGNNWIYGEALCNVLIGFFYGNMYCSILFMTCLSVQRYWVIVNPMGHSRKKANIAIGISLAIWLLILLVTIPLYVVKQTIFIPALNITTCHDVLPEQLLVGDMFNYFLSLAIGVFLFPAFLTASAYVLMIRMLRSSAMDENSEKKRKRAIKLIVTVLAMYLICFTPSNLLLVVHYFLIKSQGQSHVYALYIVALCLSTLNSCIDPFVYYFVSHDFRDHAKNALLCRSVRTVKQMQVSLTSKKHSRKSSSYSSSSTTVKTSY


How the values were obtained:
[1] = target: T1, Wildtype human PAR2 expressed on cells; experiment: cell-based or functional assay
[2] = target: T1, Wildtype human PAR2 expressed on cells; experiment: cell-based or functional assay; remark: listed apart in the source
[3] = target: Cynomolgus PAR2 on BacMam-infected HEK293 cells (cynomolgus); experiment: cell-based or functional assay
Rhesus PAR2 on cells = Rhesus PAR2 on cells (rhesus (Macaca mulatta)); experiment: cell-based or functional assay
Wildtype human PAR 1 = target: T2, Wildtype human PAR 1; experiment: IntelliCyt flow cytometry, titration of IgG1f_AEASS, S/BG
Experimental: (§1) To evaluate species cross-reactivity and/or unwanted binding to counter-targets simultaneously, screening in 384-well plate format was performed using the HTFC/iQue screening platform from IntelliCyt. The HTFC/iQue Screening System was also used for evaluation of binding to multiple target cell lines or evaluation of unwanted/non-specific binding in parallel, in other words multiplexing. Different cell populations could be distinguished by pre-labelling with distinct amounts of fluorescent dyes, such as Calcein or Cell-Tracker Green, establishing a unique signature of fluorescence intensity for each cell population, thereby producing a fluorescence coding system. The color-coded cell lines were then physically combined and mixed together with antibodies to be tested. Individual cell-lines could be identified via the fluorescence of the respective cell-line that had been pre-labelled. Crude bacterial cell lysates were combined with cells and incubated for 1 hour at room temperature in the dark, shaking gently. Fluorescence measurement was performed with the IntelliCyt HTFC/iQue device. In between incubation steps, no washing was required. Raw data were evaluated with the help of the ‘ForeCyt’ software. After data acquisition, the cell lines from each sample could be identified according to their fluorescence signature and individually evaluated for antibody binding. […]

[4] = target: T3, Mouse PAR2 on Flp-In CHO cells; experiment: FACS titration on CHO mouse Par2 cells, RLU [continued) C]
Source text: Binding events to cell surface expressed antigen were identified by flow cytometry using either crude E. coli lysates from the panning output or purified antibodies. High throughput primary screens of panning outputs from differential whole cell pannings (DWCP) were mainly performed on human wild type PAR2-expressing Flp-In CHO cells (Flp-In CHO_huPAR2), GNTI BacMam wild type PAR2 cells and GNTI BacMam truncated PAR2 StaR versus parental Flp-In CHO cells (PAR2 negative) or non-infected HEK293GNTI-cells. Candidates showing an elevated background binding to parental Flp-In CHO cells were ascribed as either non-specific or off-target binders. All steps were performed in FACS buffer including FCS and sodium azide to prevent potential receptor internalization. Cell suspensions were transferred into microtiter plates and antibody samples were added followed by subsequent incubation of plates at 4° C. Sample volume and cell-number were adjusted to the plate type used. Following incubation, cells were spun down and washed with FACS buffer. Fluorophore-conjugated secondary reagents were used for detection of bound antibodies. Plates were measured using the BD FACS Array or IntelliCyt HTFC/iQue System and data was analysed using FlowJo, ForeCyt or proprietary software tools (FIG. 3).

[5] = target: T4, PAR2-3: P157: 1-377, glycosylated, …; experiment: SPR Biacore; IgG captured on anti-human IgG, 100 nM PAR2 analyte; 1:1 model
Experimental: The antibodies were captured on anti-human IgG chip surface followed by injection of 100 nM PAR2. The data were fitted to 1:1 interaction model except for clone ‘Y021160’ in which case heterogeneous ligand model was used and component with slow dissociation was used for comparison.
(§2) For three purified IgG1f_AEASS clones Y021171, Y022054 and Y022063 affinities to human PAR2-3 variant (P157: 1-377, glycosylated, pBacMamHisStrepII, full length) were determined by SPR immobilizing the IgG and probing with detergent (LMNG/CHS) solubilized FL-N PAR2 StaR. Affinities were 22 nM and 20 nM for Y022063 and Y021171, respectively.

[6] = target: T5, V5His-huPAR2 on Flp-In CHO cells; experiment: IntelliCyt flow cytometry, titration of IgG1f_AEASS on Flp-In CHO_V5His_huPAR2 cells, S/BG
Experimental: as §1

[7] = target: T1, Wildtype human PAR2 expressed on cells; experiment: IntelliCyt flow cytometry, titration of IgG1f_AEASS on HEK Flp-In TRex 293_huPAR2 expression-induced cells, S/BG
Experimental: as §1

[8] = target: T3, Mouse PAR2 on Flp-In CHO cells; experiment: cell binding, flow cytometry/IntelliCyt
[9] = target: T4, PAR2-3: P157: 1-377, glycosylated, …; experiment: SPR; IgG immobilised, detergent solubilised FL-N PAR2 StaR as analyte
Experimental: as §2
(§3) The assay of PAR2 interaction with anti-PAR2 antibodies was carried out using a Biacore T200 instrument (GE Healthcare). Anti-human IgG antibody (Human Antibody Capture Kit, GE Healthcare) was immobilised by amine coupling on a sensor chip CM3 (GE Healthcare) to a surface density of 3500 to 4500 resonance units (RU). Immobilisation was carried out at 25° C. in HBS-EP+ buffer (GE Healthcare). The buffer was then changed to 50 mM HEPES, pH 7.5, 150 mM NaCl, 0.02% LMNG, 0.002% CHS. Each cycle of the PAR2-antibody interaction assay consisted of antibody capture (100 nM antibody injected for 2 min at a flow rate of 5 μL/min), PAR2 injection (blank or 250 nM, with contact and dissociation times of 2 and 3 minutes, respectively, at a flow rate of 20 μl/minute), and chip surface regeneration (30 seconds at 20 μl/minute) using the regeneration solution from Human Antibody Capture Kit (GE Healthcare). […] Measurements between each experimental data set were within the acceptable margins for this methodology.

[10] = target: T4, PAR2-3: P157: 1-377, glycosylated, …; experiment: SPR Biacore T200; IgG captured on anti-human IgG, 250 nM PAR2 analyte; 1:1 model
Experimental: as §3
The antibodies were captured on anti-human IgG chip surface followed by injection of 250 nM PAR2. The data were fitted to 1:1 interaction model.

% Max Inhibition AP, IP-One [1] [%]	IC50 (nM), SLIGKV agonist challenge, Human [2] [nM]	IC50 (nM), SLIGKV agonist challenge, Cyno [3] [nM]	IC50 (nM), SLIGKV agonist challenge, Rhesus (Rhesus PAR2 on cells) [nM]	binding result (Wildtype human PAR 1)	binding result [4]	Kd [5] [nM]	koff [5] [s⁻¹]	kon [5] [M⁻¹ s⁻¹]	EC50 (read off the curve) [6] [nM]	EC50 (read off the curve) [7] [nM]	binding result [8]	fold higher affinity compared to Y022063 and Y021171 [9] [fold]	Kd [10] [nM]	koff [10] [s⁻¹]	kon [10] [M⁻¹ s⁻¹]	Binder
43	264	> 2000	> 2000	no binding (tested: 200 nM)	no binding	5.3	0.00016	30000	~4	~7	–	–	–	–	–	Y022065 (antibody, human IgG1, lambda, V domains shown, also called clone Y022065; parental clone Y022065) VH: not shown VL: QSALTQPASVSGSPGQSITISCTGTSSDVGSYNLVSWYQQHPGKAPKLMIYEGSKRPSGVSNRFSGSKSGNTASLTISGLQAEDEADYYCSQYATFIAFAVFGGGTKLTVLG
17	–	–	–	–	–	–	–	–	–	–	no binding	10	2.5	0.00029	120000	Y022054 (antibody, V domains shown) VH: EVQLLESGGGLVQPGGSLRLSCAASGFTFSSYAISWVRQAPGKGLEWVSAISGSGGSTYYAESVKGRFTISRDNSKNTLYLQMNSLRAEDTAVYYCARGYAEFGVWGQGTLVTVSS VL: DIQMTQSPSSLSASVGDRVTITCRASQSISSYLNWYQQKPGKAPKLLIYAASSLQSGVPSRFSGSGSGTDFTLTISSLQPEDFATYYCQQTWGGPQTFGQGTKVEIKR
